Source: patent US20250136703A1 (PHANES THERAPEUTICS, published 2025)

T1: recombinant human IL13Ra2 (ACROBiosystems; CAT #: IL2-H52H5) (human, UniProt Q14627 27-343)
T1 construct: Bought protein, coated on the ELISA plate; also called Interleukin-13 Receptor Subunit Alpha 2; immobilized recombinant IL13Ra2
T1 sequence (looked up): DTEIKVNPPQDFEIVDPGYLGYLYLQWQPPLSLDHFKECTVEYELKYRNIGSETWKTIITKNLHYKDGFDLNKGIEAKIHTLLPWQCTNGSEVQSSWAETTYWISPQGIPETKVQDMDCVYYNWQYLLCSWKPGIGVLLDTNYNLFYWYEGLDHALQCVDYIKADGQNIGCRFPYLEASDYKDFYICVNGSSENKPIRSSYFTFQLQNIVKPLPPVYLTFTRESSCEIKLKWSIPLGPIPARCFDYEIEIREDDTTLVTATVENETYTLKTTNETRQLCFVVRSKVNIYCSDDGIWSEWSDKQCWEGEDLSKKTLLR


How the values were obtained:
[1] = molecular target: T1, recombinant human IL13Ra2 …; assay: ELISA, antigen coated on plate, anti-human IgG Fc-HRP detection
Text: FIGS. 1A-1E show the binding of purified chimeric anti-IL13Ra2 mAbs (VH and VL regions of mouse mAb fused to the constant regions of human IgG1 heavy chain and kappa light chain, respectively) to immobilized recombinant IL13Ra2 in an ELISA assay. The antigen was human IL13Ra2 (ACROBiosystems; Newark, DE; CAT #: IL2-H52H5). L3A6-C refers to the chimeric version of L3A6, other antibodies following the same naming rule; Isotype control (IgG1) was included as a negative control antibody.
Purified chimeric mAbs were tested in an ELISA assay for their ability to bind to immobilized IL13Ra2. Recombinant human IL13Ra2 in Carbonate-Bicarbonate Buffer (Sigma; St. Louis, MO; Cat #: C3041-100CAP) was coated on a 96-well plate at room temperature for 1 hour. The plate is blocked by 5% BSA in TBST for 1 hour at room temperature. In each well of an individual plate, mAbs at various concentrations were incubated for 1 hour at room temperature. The plate was washed and the binding to IL13Ra2 was detected by a mouse anti-human IgG Fc antibody conjugated to horseradish peroxidase (Genescript; Piscataway, NJ; Cat #: A01854) with incubation for 1 hour at room temperature. Then after washing, the ELISA was developed using One-step Detection Solution (ThermoFisher Scientific; Waltham, MA; Cat #: 34028) and measured as the absorbance at 450 nm. […]

[2] = molecular target: T1, recombinant human IL13Ra2 …; assay: ELISA, antigen coated on plate

| Binder | binding result [1] | binding result [2] |
| --- | --- | --- |
| L3A6-C (chimeric version of L3A6) (antibody, V domains shown, Mouse VH and VL fused to the constant regions of human IgG1 heavy chain and kappa light chain) VH: QVQLQQPGAELVKPGAPVKLSCKASGYTFTNYWMNWVKQRPGRGLEWIGRIDPSDTETHYNQEVKDKATLTVDKSSSTAYIQLSSLTSEDSAVYYCARGYGTYYGMDYWGQGTSVTVSS VL: not shown | binds | – |
| L3A6-H1L1 (humanized mAb constructed with L3A6-H1 heavy chain and L3A6-L1 light chain) (antibody, V domains shown, Humanized VH and VL fused to the constant regions of human IgG1 heavy chain and kappa light chain) VH: QVTLRESGPALVKPTQTLTLTCTASGYTFTNYWMNWVRQPPGKALEWIGRIDPSDTETHYNQEVKDRATLSVDKSKNQAVLTMTNMDPVDTATYYCARGYGTYYGMDYWGQGSLVTVSS VL: DIVLTQSPDSLSVSLGERATINCRASESVDNYGISFMNWFQQKPGQPPKLLIYAASNQGSGVPDRFSGSGSGTDFTLTISSLQAEDVAVYFCQQSKEVPWTFGGGTKVEIK | – | binds |
